Reference: patent publication US20230203202A1

Assays:
[1] = target: poly-specificity reagent (PSR); test: flow cytometry PSR assay on protein A beads; same quadrant without PSR: 0
[2] = target: poly-specificity reagent (PSR); test: flow cytometry PSR assay on protein A beads; same quadrant without PSR: 0.025
[3] = target: poly-specificity reagent (PSR); test: flow cytometry PSR assay on protein A beads; same quadrant without PSR: 9.17E-3
[4] = target: poly-specificity reagent (PSR); test: flow cytometry PSR assay on protein A beads; same quadrant without PSR: 0.046

| Substance | Q3 (Expression-FITC low, Binding-PE high), + PSR [1] | Q2 (Expression-FITC high, Binding-PE high), + PSR [2] | Q3 (Expression-FITC low, Binding-PE high), + PSR [3] | Q2 (Expression-FITC high, Binding-PE high), + PSR [4] |
| --- | --- | --- | --- | --- |
| Trastuzumab (antibody) | 0.049 | 0.37 | – | – |
| Rituximab (antibody) | – | – | 0.82 | 69.8 |
